This assay has as its target VEGF165 (UniProt P15692). Put plainly: cell-based or functional assay.
UniProt P15692, sequence (P15692 other isoform, or with tags, fused parts or gaps): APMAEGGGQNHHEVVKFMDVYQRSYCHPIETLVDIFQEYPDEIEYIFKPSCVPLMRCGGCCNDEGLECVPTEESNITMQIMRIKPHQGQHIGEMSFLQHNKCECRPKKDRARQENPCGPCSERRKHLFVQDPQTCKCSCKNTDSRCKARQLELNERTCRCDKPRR

As to Conbercept(康柏西普) (Fc fusion), the HUVEC细胞增殖抑制 EC50 was 0.221 nM.

The values above are taken from CN114685674A.
